The supplement of paper PMC11246515
± gives the standard deviation of the averaged measurements.

Assay: total protein half-life in vivo (active degradation + dilution); higher = more stable protein
[1] = E. coli NCM3722 delta-clpP delta-lon delta-hslV, growth: N-lim chemostat, doubling time 6 h
[2] = E. coli NCM3722 delta-clpP, growth: N-lim chemostat, doubling time 6 h
[3] = wild type E. coli NCM3722, growth: C-lim chemostat, doubling time 3 h
[4] = wild type E. coli NCM3722, growth: C-lim chemostat, doubling time 6 h
[5] = wild type E. coli NCM3722, growth: C-lim chemostat, doubling time 12 h
[6] = wild type E. coli NCM3722, growth: N-lim chemostat, doubling time 6 h
[7] = wild type E. coli NCM3722, growth: P-lim chemostat, doubling time 6 h
[8] = wild type E. coli NCM3722, growth: P-lim chemostat, doubling time 12 h
[9] = E. coli NCM3722 delta-hslV, growth: N-lim chemostat, doubling time 6 h
[10] = E. coli NCM3722 delta-lon, growth: N-lim chemostat, doubling time 6 h
[11] = E. coli NCM3722 delta-smpB, growth: N-lim chemostat, doubling time 6 h
[12] = wild type E. coli NCM3722, growth: N-lim chemostat, doubling time 12 h

| Sequence | total protein half-life in vivo [1] [h] | total protein half-life in vivo [2] [h] | total protein half-life in vivo [3] [h] | total protein half-life in vivo [4] [h] | total protein half-life in vivo [5] [h] | total protein half-life in vivo [6] [h] | total protein half-life in vivo [7] [h] | total protein half-life in vivo [8] [h] | total protein half-life in vivo [9] [h] | total protein half-life in vivo [10] [h] | total protein half-life in vivo [11] [h] | total protein half-life in vivo [12] [h] |
| --- | --- | --- | --- | --- | --- | --- | --- | --- | --- | --- | --- | --- |
| MNLDDIINSMMPEVYQRLSTAVELGKWPDGVALTEEQKENCLQLVMLWQARHNIEAQHMTIDTNGQMVMKSKQQLKEDFGISAKPIAMFK | 4.42 ± 2.1 | 0.712 | 0.231 ± 0.0036 | 0.237 ± 0.16 | 0.116 ± 0.16 | 0.172 | 0.371 ± 0.17 | 1.17 ± 1.3 |  |  |  |  |
| MNLMTTITGVVLAGGKARRMGGVDKGLLELNGKPLWQHVADALMTQLSHVVVNANRHQEIYQASGLKVIEDSLADYPGPLAGMLSVMQQEAGEWFLFCPCDTPYIPPDLAARLNHQRKDAPVVWVHDGERDHPTIALVNRAIEPLLLEYLQAGERRVMVFMRLAGGHAVDFSDHKDAFVNVNTPEELARWQEKR | 4.29 ± 0.5 | 3.95 ± 0.19 | 2.95 ± 0.26 | 5.9 ± 0.46 | 9.71 ± 3.2 | 4.46 | 5.046 ± 0.009 | 10.9 ± 0.43 | 3.728 ± 0.033 | 4.1 ± 0.19 | 3.59 ± 0.12 | 6.67 ± 1.5 |
| MNLNSIPAFDDNYIWVLNDEAGRCLIVDPGDAEPVLNAIAANNWQPEAIFLTHHHHDHVGGVKELVEKFPQIVVYGPQETQDKGTTQVVKDGETAFVLGHEFSVIATPGHTLGHICYFSKPYLFCGDTLFSGGCGRLFEGTASQMYQSLKKLSALPDDTLVCCAHEYTLSNMKFALSILPHDLSINDYYRKVKELRAKNQITLPVILKNERQINVFLRTEDIDLINVINEETLLQQPEERFAWLRSKKDRF [P0AC84] | 4.67 ± 0.3 | 4.24 ± 0.2 | 2.81 ± 0.13 | 4.76 ± 0.13 | 7.09 ± 1.1 | 4.31 ± 0.21 | 4.81 ± 0.13 | 8.75 ± 0.89 | 4.88 ± 0.89 | 4.5351 ± 0.0033 | 4.01 ± 0.41 | 6.316 ± 0.03 |
| MNMEEIVALSVKHNVSDLHLCSAWPARWRIRGRMEAAPFDTPDVEELLREWLDDDQRAILLENGQLDFAVSLAENQRLRGSAFAQRHGISLALRLLPSHCPQLEQLGAPTVLPELLKSENGLILVTGATGSGKSTTLAAMVGYLNQHADAHILTLEDPVEYLYASQRCLIQQREIGLHCMTFASGLRAALREDPDVILLGELRDSETIRLALTAAETGHLVLATLHTRGAAQAVERLVDSFPAQEKDPVRNQLAGSLRAVLSQKLEVDKQEGRVALFELLINTPAVGNLIREGKTHQLPHVIQTGQQVGMITFQQSYQHRVGEGRL | 5.68 ± 0.4 |  |  |  |  |  |  |  |  |  |  |  |
| MNMFFRLTALAGLLAIAGQTFAVEDITRADQIPVLKEETQHATVSERVTSRFTRSHYRQFDLDQAFSAKIFDRYLNLLDYSHNVLLASDVEQFAKKKTELGDELRSGKLDVFYDLYNLAQKRRFERYQYALSVLEKPMDFTGNDTYNLDRSKAPWPKNEAELNALWDSKVKFDELSLKLTGKTDKEIRETLTRRYKFAIRRLAQTNSEDVFSLAMTAFAREIDPHTNYLSPRNTEQFNTEMSLSLEGIGAVLQMDDDYTVINSMVAGGPAAKSKAISVGDKIVGVGQTGKPMVDVIGWRLDDVVALIKGPKGSKVRLEILPAGKGTKTRTVTLTRERIRLEDRAVKMSVKTVGKEKVGVLDIPGFYVGLTDDVKVQLQKLEKQNVSSVIIDLRSNGGGALTEAVSLSGLFIPAGPIVQVRDNNGKVREDSDTDGQVFYKGPLVVLVDRFSASASEIFAAAMQDYGRALVVGEPTFGKGTVQQYRSLNRIYDQMLRPEWPALGSVQYTIQKFYRVNGGSTQRKGVTPDIIMPTGNEETETGEKFEDNALPWDSIDAATYVKSGDLTAFEPELLKEHNARIAKDPEFQNIMKDIARFNAMKDKRNIVSLNYAVREKENNEDDATRLARLNERFKREGKPELKKLDDLPKDYQEPDPYLDETVNIALDLAKLEKARPAEQPAPVK | 6.08 ± 0.32 | 6.08 ± 0.59 | 2.99 ± 0.082 | 5.66 ± 0.27 | 10.9 ± 1.1 | 6.13 ± 0.35 | 5.879 ± 0.052 | 12.9 ± 1.3 | 6.0465 ± 0.0037 | 6.36 ± 0.18 | 5.95 ± 0.39 | 12.8 ± 0.28 |
| MNMLALTIILPLIGFVLLAFSRGRWSENVSAIVGVGSVGLAALVTAFIGVDFFANGEQTYSQPLWTWMSVGDFNIGFNLVLDGLSLTMLSVVTGVGFLIHMYASWYMRGEEGYSRFFAYTNLFIASMVVLVLADNLLLMYLGWEGVGLCSYLLIGFYYTDPKNGAAAMKAFVVTRVGDVFLAFALFILYNELGTLNFREMVELAPAHFADGNNMLMWATLMLLGGAVGKSAQLPLQTWLADAMAGPTPVSALIHAATMVTAGVYLIARTHGLFLMTPEVLHLVGIVGAVTLLLAGFAALVQTDIKRVLAYSTMSQIGYMFLALGVQAWDAAIFHLMTHAFFKALLFLASGSVILACHHEQNIFKMGGLRKSIPLVYLCFLVGGAALSALPLVTAGFFSKDEILAGAMANGHINLMVAGLVGAFMTSLYTFRMIFIVFHGKEQIHAHAVKGVTHSLPLIVLLILSTFVGALIVPPLQGVLPQTTELAHGSMLTLEITSGVVAVVGILLAAWLWLGKRTLVTSIANSAPGRLLGTWWYNAWGFDWLYDKVFVKPFLGIAWLLKRDPLNSMMNIPAVLSRFAGKGLLLSENGYLRWYVASMSIGAVVVLALLMVLR | 7.03 ± 0.33 | 7.32 ± 0.33 | 3.23 | 7.19 ± 1.1 | 12.1 ± 1.4 |  | 6.74 ± 0.88 | 11.1 ± 1.1 | 6.62 ± 0.33 | 5.89 ± 0.59 | 6.017 ± 0.032 | 15.6 |
| MNMLEKIQSQLEHLSKSERKVAEVILASPDNAIHSSIAAMALEANVSEPTVNRFCRSMDTRGFPDFKLHLAQSLANGTPYVNRNVNEDDSVESYTGKIFESAMATLDHVRHSLDKSAINRAVDLLTQAKKIAFFGLGSSAAVAHDAMNKFFRFNVPVVYSDDIVLQRMSCMNCSDGDVVVLISHTGRTKNLVELAQLARENDAMVIALTSAGTPLAREATLAITLDVPEDTDIYMPMVSRLAQLTVIDVLATGFTLRRGAKFRDNLKRVKEALKESRFDKQLLNLSDDR | 6.3 ± 1.1 | 4.86 ± 0.47 | 2.26 ± 0.21 | 4.52 ± 1.7 | 5.45 ± 0.083 | 3.77 ± 0.28 | 2 ± 0.28 | 4.1 ± 1.5 | 3.12 ± 0.53 | 3.65 ± 0.91 | 3.23 ± 0.018 | 4.38 ± 0.15 |
